Key:
[1] = molecular target: T1, high affinity (HA) α4β7 integrin on activated cells (Mn2+-treated TK-1 cells or primary mouse leukocytes) (mouse, UniProt Q00651 41-1039; P26011 20-806); assay: flow cytometry on Mn2+-treated TK-1 cells
T1 construct: whole, on cells; Same polypeptides as m4; also called LPAM-1
Protocol: (§1) In-vitro binding—TK-1 cells were activated according to Y. Yang et al.³⁰. Briefly, cells were washed with PBS and resuspended in resuspension buffer (HBSS with 10 mM HEPES buffer, 2 mM CaCl₂ and 2 mM MgCl₂). Non-activated cells were kept on ice while activated cells were resuspended in pre-incubation buffer (HBSS with 10 mM HEPES buffer and 2 mM EDTA), incubated at RT for 30 minutes with gentle rotation, washed with PBS and finally resuspended in activation buffer (HBSS with 10 mM HEPES buffer, 2 mM CaCl₂ and 2 mM MnCl₂). MAdCAM-D1D2-Fc and the controls were added to both activated and non-activated cells and incubated for 30 minutes at 4° C. Cells were subsequently washed and stained with either anti-human IgG or anti-mouse IgG conjugated to AlexaFluor647 (Biolegend, USA). Binding of D1D2-Fc to TK-1 cells was assessed by analyzing the fluorescence of the cells by flow cytometry. Binding of D1D2-targeted Cy5-LNPs was detected by flow cytometry directly using the Cy5 fluorescence (without addition of another antibody). In the binding experiments with Cy5-LNPs, the HBSS in the activation buffer was replaced with RPMI+10% FBS due to a high background using LNPs.
(§2) Following purification, the functionality of the generated D1D2-Fc and mD1D2-Fc was tested in-vitro by assessing their binding to TK-1 cells using flow cytometry. […]

[2] = molecular target: T2, low affinity (LA) α4β7 integrin on non-activated cells (Ca2+ control, no Mn2+) (mouse, UniProt Q00651 41-1039; P26011 20-806); assay: flow cytometry on TK-1 cells without Mn2+ (Ca2+ control)
T2 construct: whole, on cells
Protocol: as §1, §2

T2 sequence (Q00651 41-1039, chain 1 of 2): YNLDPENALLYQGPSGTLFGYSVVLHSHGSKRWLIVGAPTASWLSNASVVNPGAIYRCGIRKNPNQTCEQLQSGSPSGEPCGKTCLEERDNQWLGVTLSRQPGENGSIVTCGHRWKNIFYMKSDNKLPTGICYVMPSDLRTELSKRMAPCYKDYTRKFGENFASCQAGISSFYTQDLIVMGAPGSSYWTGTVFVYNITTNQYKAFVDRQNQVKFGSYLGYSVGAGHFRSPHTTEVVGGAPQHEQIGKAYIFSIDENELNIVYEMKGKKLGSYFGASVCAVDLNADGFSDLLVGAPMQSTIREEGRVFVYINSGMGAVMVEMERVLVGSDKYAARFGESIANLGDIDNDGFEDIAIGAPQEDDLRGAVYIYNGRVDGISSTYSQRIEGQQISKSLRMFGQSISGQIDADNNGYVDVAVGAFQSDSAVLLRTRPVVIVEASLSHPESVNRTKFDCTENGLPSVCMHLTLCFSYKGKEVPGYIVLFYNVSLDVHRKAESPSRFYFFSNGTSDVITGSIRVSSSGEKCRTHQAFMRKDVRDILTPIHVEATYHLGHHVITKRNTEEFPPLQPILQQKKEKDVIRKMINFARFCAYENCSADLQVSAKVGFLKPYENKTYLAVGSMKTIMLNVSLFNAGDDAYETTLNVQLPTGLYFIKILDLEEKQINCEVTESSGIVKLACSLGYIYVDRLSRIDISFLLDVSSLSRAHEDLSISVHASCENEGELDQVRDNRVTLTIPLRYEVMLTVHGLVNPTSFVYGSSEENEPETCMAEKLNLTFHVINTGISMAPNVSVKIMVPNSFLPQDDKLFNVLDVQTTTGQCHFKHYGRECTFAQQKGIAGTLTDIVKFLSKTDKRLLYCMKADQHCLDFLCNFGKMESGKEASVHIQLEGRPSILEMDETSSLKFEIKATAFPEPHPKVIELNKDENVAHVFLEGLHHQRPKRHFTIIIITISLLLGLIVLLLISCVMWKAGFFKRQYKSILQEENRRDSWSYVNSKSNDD
T2 sequence (P26011 20-806, chain 2 of 2): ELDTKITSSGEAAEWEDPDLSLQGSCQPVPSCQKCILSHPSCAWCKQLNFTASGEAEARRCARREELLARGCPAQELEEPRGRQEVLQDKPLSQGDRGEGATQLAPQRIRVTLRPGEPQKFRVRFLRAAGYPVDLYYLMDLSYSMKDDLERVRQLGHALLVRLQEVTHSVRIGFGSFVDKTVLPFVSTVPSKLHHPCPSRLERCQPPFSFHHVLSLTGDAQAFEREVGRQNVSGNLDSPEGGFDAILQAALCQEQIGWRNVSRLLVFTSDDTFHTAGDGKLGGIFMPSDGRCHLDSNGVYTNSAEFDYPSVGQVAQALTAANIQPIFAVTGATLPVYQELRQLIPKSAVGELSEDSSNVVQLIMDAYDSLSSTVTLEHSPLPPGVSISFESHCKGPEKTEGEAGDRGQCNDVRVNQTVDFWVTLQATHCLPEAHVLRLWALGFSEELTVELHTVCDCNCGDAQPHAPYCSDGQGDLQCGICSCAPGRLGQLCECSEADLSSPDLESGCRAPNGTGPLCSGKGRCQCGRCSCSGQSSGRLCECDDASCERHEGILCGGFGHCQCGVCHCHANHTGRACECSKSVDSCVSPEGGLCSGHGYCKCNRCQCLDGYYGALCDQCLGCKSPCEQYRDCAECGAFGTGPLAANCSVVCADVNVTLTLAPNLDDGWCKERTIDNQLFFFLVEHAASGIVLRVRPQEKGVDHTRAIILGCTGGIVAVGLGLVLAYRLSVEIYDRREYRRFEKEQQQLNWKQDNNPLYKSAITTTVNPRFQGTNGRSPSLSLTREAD
T1 sequence (Q00651 41-1039, chain 1 of 2): as the sequence (Q00651 41-1039, chain 1 of 2) above
T1 sequence (P26011 20-806, chain 2 of 2): as the sequence (P26011 20-806, chain 2 of 2) above

- binding result [1]: no binding
- binding result [2]: no binding
B1: MAdCAM-mD1D2-Fc fusion protein (D62A mutated control) (Fc fusion)
chain: DYKDDDDKLAAAQSFQVNPPESEVAVAMGTSLQITCSMSCDEGVARVHWRGLATSLGSVQTLPGSSILSVRGMLSDTGTPVCVGSCGSRSFQHSVKILVYAFPDQLVVSPEFLVPGQDQVVSCTAHNIWPADPNSLSFALLLGEQRLEGAQALEPEQEEEIQEAEGTPLFRMTQRWRLPSLGTPAPPALHCQVTMQLPKLVLTHRKEIPVLGGGGSGGGGSGGGGSVPRECNPCGCTGSEVSSVFIFPPKTKDVLTITLTPKVTCVVVDISQNDPEVRFSWFIDDVEVHTAQTHAPEKQSNSTLRSVSELPIVHRDWLNGKTFKCKVNSGAFPAPIEKSISKPEGTPRGPQVYTMAPPKEEMTQSQVSITCMVKGFYPPDIYTEWKMNGQPQENYKNTPPTMDTDGSYFLYSKLNVKKETWQQGNTFTCSVLHEGLHNHHTEKSLSHSPGKGSGHHHHHH
notes: The signal peptide, FLAG-tag and 6x HIS-tag are as in D1D2-Fc; also called mD1D2 control; targeting protein of the mD1D2-targeted LNPs (mD1D2-LNPs)

From patent US20230357353A1 (RAMOT AT TEL AVIV UNIVERSITY, published 2023)
